Assay results reported in patent US20050074865.

B1: mesotrypsin, activated with enterokinase (C-terminal myc and His6 tags, expressed from pDEST40) (protein)
chain: IVGGYTCEENSLPYQVSLNSGSHFCGGSLISEQWVVSAAHCYKTRIQVRLGEHNIKVLEGNEQFINAAKIIRHPKYNRDTLDNDIMLIKLSSPAVINARVSTISLPTAPPAAGTECLISGWGNTLSFGADYPDELKCLDAPVLTQAECKASYPGKITNSMFCVGFLEGGKDSCQRDSGGPVVCNGQLQGVVSWGHGCAWKNRPGVYTKVYNYVDWIKDTIAANSEQKLISEEDLNSAVDHHHHHH
B2: ADAMTS4 (enzyme, UniProt O75173 213-837, looked up, species assumed)
A disintegrin and metalloproteinase with thrombospondin motifs 4: FASLSRFVETLVVADDKMAAFHGAGLKRYLLTVMAAAAKAFKHPSIRNPVSLVVTRLVILGSGEEGPQVGPSAAQTLRSFCAWQRGLNTPEDSDPDHFDTAILFTRQDLCGVSTCDTLGMADVGTVCDPARSCAIVEDDGLQSAFTAAHELGHVFNMLHDNSKPCISLNGPLSTSRHVMAPVMAHVDPEEPWSPCSARFITDFLDNGYGHCLLDKPEAPLHLPVTFPGKDYDADRQCQLTFGPDSRHCPQLPPPCAALWCSGHLNGHAMCQTKHSPWADGTPCGPAQACMGGRCLHMDQLQDFNIPQAGGWGPWGPWGDCSRTCGGGVQFSSRDCTRPVPRNGGKYCEGRRTRFRSCNTEDCPTGSALTFREEQCAAYNHRTDLFKSFPGPMDWVPRYTGVAPQDQCKLTCQAQALGYYYVLEPRVVDGTPCSPDSSSVCVQGRCIHAGCDRIIGSKKKFDKCMVCGGDGSGCSKQSGSFRKFRYGYNNVVTIPAGATHILVRQQGNPGHRSIYLALKLPDGSYALNGEYTLMPSPTDVVLPGAVSLRYSGATAASETLSGHGPLAQPLTLQVLVAGNPQDTRLRYSFFVPRPTPSTPRPTPQDWLHRRAQILEILRRRPWAGRK
B3: Cathepsin G (enzyme, UniProt P08311 21-244, looked up, species assumed)
Cathepsin G: IIGGRESRPHSRPYMAYLQIQSPAGQSRCGGFLVREDFVLTAAHCWGSNINVTLGAHNIQRRENTQQHITARRAIRHPQYNQRTIQNDIMLLQLSRRVRRNRNVNPVALPRAQEGLRPGTLCTVAGWGRVSMRRGTDTLREVQLRVQRDRQCLRIFGSYDPRRQICVGDRRERKAAFKGDSGGPLLCNNVAHGIVSYGKSSGVPPEVFTRVSSFLPWIRTTMRS

Experiments:
[1] = molecular target: recombinant human TNFα (RDI), P01375
Chain of recombinant human TNFα (RDI), P01375 (P01375 77-233): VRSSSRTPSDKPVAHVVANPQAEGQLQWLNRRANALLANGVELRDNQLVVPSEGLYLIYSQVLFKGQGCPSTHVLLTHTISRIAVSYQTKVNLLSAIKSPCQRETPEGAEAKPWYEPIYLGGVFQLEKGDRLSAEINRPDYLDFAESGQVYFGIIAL

[2] = molecular target: recombinant human TNFα (RDI) (UniProt P01375)
Chain of recombinant human TNFα (RDI) (P01375 77-233): as above

Row | Protein | cleavage of TNF, Western blot with anti-TNF antibody after overnight incubation [1] | inactivation of TNF bioactivity, L929 bioassay after overnight digestion, 100 nM mesotrypsin and 100 nM TNF [1] | inactivation of TNF bioactivity, L929 bioassay after overnight digestion, mesotrypsin at 86, 43 and 22 nM with 100 nM TNF [1] | inactivation of TNFα bioactivity, L929 cytotoxicity bioassay after overnight digestion [2]
1 | B1 | but not by enzyme (mesotrypsin) to an appreciatable degree | at equimolar ratios, mesotrypsin achieved only marginal inactivation of TNF in solution | at these concentrations, the enzyme mesotrypsin, is either inactive or marginally active towards TNF | –
2 | B2 | – | – | – | ADAMTS4 (column: Proteases that did not inactivate TNF)
3 | B3 | – | – | – | Cathepsin G (column: Proteases that did not inactivate TNF)
